Results taken from patent US20180030135A1, “HUMAN MONOCLONAL ANTIBODIES AGAINST OREXIN RECEPTOR TYPE 1” (INSERM (INSTITUT NATIONAL DE LA SANTÉ ET DE LA RECHERCHÉ …, priority 2015, published 2018).
Changes are numbered by the printed parent chain.

B1: C1 antibody (antibody, V domains shown)
VH: EVQLVESGGSLVKPGGSLRLSCAASGFTFSNYYMNWVRQAPGKGLEWISYISGSSRNIYYADFVKGRFTISRDNATNSLYLQMNSLRAEDTAVYYCVRSNYDGMDVWGRGTLVTVSS
VL: QSVLTQPASVSGSPGQSITISCAGTSSDVGGSNYVSWYQQHPGKAPKLMIYSDSYRPSGVSNRFSGSKSGNTASLTISGLQAEDEADYYCSSYTYYSTRVFGGGTKLAVLG
notes: Human anti-OX1R antibody from phage display
B2: C1: human monoclonal anti-OX1R antibody from phage display; VH SEQ ID NO:1, VL SEQ ID NO:2 (antibody, V domains shown)
VH: B1 VH
VL: B1 VL
modifications: Synthetic VH sequence of C1; Synthetic VL sequence of C1

Legend:
[1] = target: T1, orexin receptor type 1 (OX1R) (human, UniProt O43613 1-425); experiment: competitive inhibition of 125I-OxA binding to HEK-OX1R cells
T1 construct: whole, on cells; also called HCTR1; hypocretin receptor type 1
T1 sequence (looked up): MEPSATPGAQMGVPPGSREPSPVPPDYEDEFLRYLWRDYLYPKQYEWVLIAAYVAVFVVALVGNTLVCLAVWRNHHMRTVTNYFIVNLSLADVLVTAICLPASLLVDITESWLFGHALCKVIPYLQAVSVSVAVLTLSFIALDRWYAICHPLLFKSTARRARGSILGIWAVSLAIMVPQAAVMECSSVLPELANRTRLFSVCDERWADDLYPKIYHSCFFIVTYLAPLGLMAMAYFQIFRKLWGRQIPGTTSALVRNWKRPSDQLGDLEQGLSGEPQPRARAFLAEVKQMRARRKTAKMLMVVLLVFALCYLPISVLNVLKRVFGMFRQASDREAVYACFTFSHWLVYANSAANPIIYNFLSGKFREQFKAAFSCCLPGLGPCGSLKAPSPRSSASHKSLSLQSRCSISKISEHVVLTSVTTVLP

rat OX1R = target: T2, rat OX1R (rat, UniProt P56718 1-416); experiment: told from effects on cells transfected with rat OX1R (FIG. 4)
T2 construct: whole, on cells; also called CHO-ratOX1R; OX1R of rat
T2 sequence (looked up): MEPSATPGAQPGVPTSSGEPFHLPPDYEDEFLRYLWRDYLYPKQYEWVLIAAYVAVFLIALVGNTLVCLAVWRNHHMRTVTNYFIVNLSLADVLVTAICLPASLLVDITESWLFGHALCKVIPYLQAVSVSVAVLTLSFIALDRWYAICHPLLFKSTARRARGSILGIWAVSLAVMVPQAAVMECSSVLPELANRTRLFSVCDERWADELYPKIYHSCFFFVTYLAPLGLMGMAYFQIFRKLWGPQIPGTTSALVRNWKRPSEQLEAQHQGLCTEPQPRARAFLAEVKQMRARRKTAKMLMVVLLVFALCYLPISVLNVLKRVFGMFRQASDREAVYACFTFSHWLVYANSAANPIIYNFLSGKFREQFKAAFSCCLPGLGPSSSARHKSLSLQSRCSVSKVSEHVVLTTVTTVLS

mouse OX1R = target: T3, mouse OX1R (mouse, UniProt P58307 1-416); experiment: told from effects on cells transfected with mouse OX1R (FIG. 4)
T3 construct: whole, on cells; Legend says HEK-mouseOX1R, the text says CHO cell lines transfected with OX1R of mouse or rat; also called HEK-mouseOX1R; OX1R of mouse
T3 sequence (looked up): T2 sequence (looked up) with H116Q, R205H, F221I, G232A, P245R, S383G

[2] = test system: HEK-OX1R cells expressing recombinant OX1R; experiment: Cell growth of HEK-OX1R cells (cell counting); type: cell-based, human; conditions: 0.1 μM, 48 h
HEK-mouseOX1R = experiment: Cell growth / apoptosis of cells transfected with mouse OX1R; type: cell-based; conditions: 0.1 μM, 48 h, FIG. 4
Procedure: Cells were treated for 48 h with 0.1 μM of each compound and then cells were counted. Results were expressed as the percentage of untreated cell number (Control).
The development of antibodies directed against OX1R were produced by a phage display strategy and the antibody selection was performed by using HEK and HEK stably expressing OX1R (HEK-OX1R) cell lines. As a first step, a batch of 7 different antibodies named B4, B10, C1, C2, D4, E7 and H7 was tested for their ability to inhibit the cell growth of HEK-OX1R. […] In contrast, B4, B10, D4, E7 and. […] As previously described orexins (A & B) induced a mitochondrial apoptosis mediated by an entirely novel mechanism, not related to Gq-mediated phospholipase C activation. In fact, orexins induced the tyrosine phosphorylation of two immunoreceptor tyrosine-based inhibitory motifs (ITIMs) located in the OX1R sequence. The resulting phosphorylated receptor could then recruit and activate the phosphotyrosine phosphatase, SHP-2, which is responsible for mitochondrial apoptosis, involving cytochrome c release from mitochondria to cytosol and caspase-3 and caspase-7 activation. Here, we tested the effect of SHP inhibitor (NSC 87877) on the ability of anti-OX1R to inhibit the cellular growth of HEK-OX1R (FIG. 3).

CHO-ratOX1R = experiment: Cell growth / apoptosis of cells transfected with rat OX1R; type: cell-based; conditions: 0.1 μM, 48 h, FIG. 4
SW48 cells = experiment: Cell growth of colon cancer cell line SW48; type: cell-based; conditions: 0.1 μM, 48 h
Procedure: (§1) A. SW48 and AsPC-1 cells. B. LoVo and HCT-116 cells. Cells were treated for 48 h with 0.1 μM of each compound and then cells were counted. Results were expressed as the percentage of untreated cell number (Control).
(§2) We have tested the ability of antibodies to inhibit the cellular growth in cancer cell lines derived from colon cancer (SW48, LoVo and HCT-116 cells) and pancreas cancer (AsPC-1 cells). […] D4 and H7 have a weak effect. […] As previously described (see above) orexins are able to induce a mitochondrial apoptosis in cancer cell lines. We test the ability of antibodies to induce apoptosis in HEK-OX1R cells and colonic cancer cell line LoVo. […] This effect was dose-dependent. Indeed when HEK-OX1R cells were treated with 0.01μM of C2 antibody, cell apoptosis was only of 6±0.7% of total cells.

LoVo cells = experiment: Cell growth of colon cancer cell line LoVo; type: cell-based; conditions: 0.1 μM, 48 h
Procedure: as §1, §2

AsPC-1 cells = experiment: Cell growth of pancreas cancer cell line AsPC-1; type: cell-based; conditions: 0.1 μM, 48 h
Procedure: as §1, §2

[3] = test system: HEK-OX1R cells expressing recombinant OX1R; experiment: Apoptosis in HEK-OX1R cells (annexin V-PE binding, Guava nexin kit); type: cell-based, human; conditions: 0.1 μM, 48 h

Molecule | IC50 [1] [µM] | binding result (rat OX1R) | binding result (mouse OX1R) | inhibition of HEK-OX1R cellular growth in the presence of SHP inhibitor NSC 87877 ([2]; 50 μM NSC 87877) | reduction of HEK-OX1R cell number (cellular growth inhibition) ([2]; cells counted, versus untreated cells) | promotion of apoptosis of cells transfected with OX1R of mouse (cross reaction) (HEK-mouseOX1R) | promotion of apoptosis of cells transfected with OX1R of rat (cross reaction) (CHO-ratOX1R) | cell growth inhibition in SW48 cells (SW48 cells) | cell growth inhibition in LoVo cells (LoVo cells) | cell growth inhibition in AsPC-1 cells (AsPC-1 cells) | apoptosis in HEK-OX1R cells, % of total cells [3] [%]
B1 | ~5 | binds | binds | – | – | – | – | – | – | – | –
B2 | – | – | – | totally reversed | about 46%±3 | able to promote apotosis | able to promote apotosis | inhibit the cell growth in SW48 cells similarly to OxB | inhibit the cell growth in LoVo cells similarly to OxB | cell growth inhibition similar to OxB effect | 12±1
